Measurements from patent US20030143712A1 (J DAVID GLADSTONE INSTITUTES, published 2003).

Tests used:
endogenous HDAC3, O15379 = target: T1, endogenous HDAC3, O15379
T1 chain: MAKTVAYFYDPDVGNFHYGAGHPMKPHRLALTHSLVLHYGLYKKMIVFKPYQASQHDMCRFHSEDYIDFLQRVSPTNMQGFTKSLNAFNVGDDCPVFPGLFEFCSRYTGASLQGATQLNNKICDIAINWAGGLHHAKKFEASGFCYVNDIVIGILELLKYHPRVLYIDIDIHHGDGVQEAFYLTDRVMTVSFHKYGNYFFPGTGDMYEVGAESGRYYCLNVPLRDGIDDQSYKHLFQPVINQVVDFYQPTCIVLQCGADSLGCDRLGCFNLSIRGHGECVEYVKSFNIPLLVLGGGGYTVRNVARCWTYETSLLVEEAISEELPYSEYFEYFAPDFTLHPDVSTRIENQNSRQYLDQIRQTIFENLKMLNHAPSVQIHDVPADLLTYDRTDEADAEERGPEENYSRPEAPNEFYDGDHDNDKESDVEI

endogenous HDAC1 = endogenous HDAC1 (UniProt Q13547 1-482); test: GST pull-down from SupT1 cell extracts, western blot
Method: (§1) After incubation for 3 hours at 4° C. with rocking, reactions were washed three times in IPLS, three times in the same buffer but at 1 M NaCl, and two times in HD buffer (Fischle et al., supra). Pulldown reactions were split, and either processed for histone deacetylase activity assays or for western blotting. For pulldown reactions with ³⁵S-labeled proteins, cDNAs were transcribed and translated with the TNT reticulocyte system (Promega). The labeling reaction (5 μl) was incubated with GST fusion proteins in a total volume of 200 μl of GST buffer (20 mM Tris-HCl, pH 8.0, 150 mM KCl, 5 mM DTT, 2 mM EDTA, 10% glycerol, 0.5% non fat dry milk, 0.1% NP-40) for 1 h at 4° C. with rocking. Reactions were washed five times in the same buffer, and bound proteins were resolved on denaturing SDS-PAGE gels for analysis by autoradiography.
(§2) After extensive washing, the bound material was tested for HDAC activity.

endogenous HDAC2 = endogenous HDAC2 (UniProt Q92769 1-488); test: as above
endogenous HDAC2, sequence (Q92769 whole entry): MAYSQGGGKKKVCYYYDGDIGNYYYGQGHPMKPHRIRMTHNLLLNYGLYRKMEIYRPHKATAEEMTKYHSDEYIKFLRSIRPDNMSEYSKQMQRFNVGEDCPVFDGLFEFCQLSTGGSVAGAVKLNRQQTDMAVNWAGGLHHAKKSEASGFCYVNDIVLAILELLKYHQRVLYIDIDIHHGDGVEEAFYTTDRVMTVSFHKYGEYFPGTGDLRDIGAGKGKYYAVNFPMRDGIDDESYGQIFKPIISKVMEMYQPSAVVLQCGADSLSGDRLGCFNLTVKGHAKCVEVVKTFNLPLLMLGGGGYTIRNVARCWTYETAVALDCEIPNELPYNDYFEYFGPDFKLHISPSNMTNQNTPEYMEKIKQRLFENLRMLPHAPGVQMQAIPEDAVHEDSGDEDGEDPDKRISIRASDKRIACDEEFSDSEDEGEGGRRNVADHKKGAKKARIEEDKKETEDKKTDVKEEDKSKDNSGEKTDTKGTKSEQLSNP
Method: as §1, §2

endogenous HDAC1, sequence (Q13547 whole entry): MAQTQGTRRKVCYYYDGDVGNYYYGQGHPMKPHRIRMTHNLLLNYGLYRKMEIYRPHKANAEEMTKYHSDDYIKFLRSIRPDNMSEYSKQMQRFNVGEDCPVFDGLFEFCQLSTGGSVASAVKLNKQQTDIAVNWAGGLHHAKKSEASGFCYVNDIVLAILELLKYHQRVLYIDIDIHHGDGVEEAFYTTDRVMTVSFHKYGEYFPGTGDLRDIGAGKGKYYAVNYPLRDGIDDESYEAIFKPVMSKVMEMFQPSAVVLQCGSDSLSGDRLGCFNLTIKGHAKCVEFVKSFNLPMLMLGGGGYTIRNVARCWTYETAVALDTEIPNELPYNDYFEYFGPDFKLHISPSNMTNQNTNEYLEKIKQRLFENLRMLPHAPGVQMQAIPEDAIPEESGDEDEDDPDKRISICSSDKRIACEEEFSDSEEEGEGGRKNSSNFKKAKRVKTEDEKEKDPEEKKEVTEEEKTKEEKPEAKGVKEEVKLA

binding result (endogenous HDAC1): no binding | binding result (endogenous HDAC2): no binding
B1: GST-HDAC7(aa 438-912) (enzyme)
chain: QGGHRPLSRAQSSPAAPASLSAPEPASQARVLSSSETPARTLPFTTGLIYDSVMLKHQCSCGDNSRHPEHAGRIQSIWSRLQERGLRSQCECLRGRKASLEELQSVHSERHVLLYGTNPLSRLKLDNGKLAGLLAQRMFVMLPCGGVGVDTDTIWNELHSSNAARWAAGSVTDLAFKVASRELKNGFAVVRPPGHHADHSTAMGFCFFNSVAIACRQLQQQSKASKILIVDWDVHHGNGTQQTFYQDPSVLYISLHRHDDGNFFPGSGAVDEVGAGSGEGFNVNVAWAGGLDPPMGDPEYLAAFRIVVMPIAREFSPDLVLVSAGFDAAEGHPAPLGGYHVSAKCFGYMTQQLMNLAGGAVVLALEGGHDLTAICDASEACVAALLGNRVDPLSEEGWKQKPNLNAIRSLEAVIRVHSKYWGCMQRLASCPDSWVPRVPGADKEEVEAVTALASLSVGILAEDRPSEQLVEEEEP
notes: also called active GST-HDAC7; not shown: glutathione-S-transferase (GST) of the pGEX4T1 vector (Pharmacia), N-terminal fusion partner
HDAC activity associated with the GST pull-down from GST-HDAC4 depleted lysate against GST depleted lysate (fold reduction) (endogenous HDAC3, O15379): 3
